Data reported in the Human Domainome abundance scans (Beltran et al. 2025).
± gives the uncertainty stated by the source.

B1: Storkhead-box protein 2, residues 64 to 141; numbered along this chain, Q9P2F5 (parent)
chain: SPISQSQFIPLGEILCLAISAMNSARKPVTQEALMEHLTTCFPGVPTPSQEILRHTLNTLVRERKIYPTPDGYFIVTP

Variants of: B1
Experiment: abundance fitness (aPCA) (normalised: wild type 0, dead -1); higher = more abundant; growth selection in yeast, the domain comes from the species named
Details: Homo sapiens

Variant	abundance fitness
SPISQSQFIPLGEILCLAISAMNSARKPVTQEALMEHLTTWFPGVPTPSQEILRHTLNTLVRERKIYPTPDGYFIVTP [C41W]	-0.088 ± 0.056
SPISQSQFIPLGEILCLAISAMNSARKPVTQEALMEHLTTYFPGVPTPSQEILRHTLNTLVRERKIYPTPDGYFIVTP [C41Y]	-0.062 ± 0.09
SPISQSQFIPLGEILCLAISAMNSARKPVTQEALMEHLTTGFPGVPTPSQEILRHTLNTLVRERKIYPTPDGYFIVTP [C41G]	0.019 ± 0.042
SPISQSQFIPLGEILCLAISAMNSARKPVTQEALMEHLTTRFPGVPTPSQEILRHTLNTLVRERKIYPTPDGYFIVTP [C41R]	-0.05 ± 0.047
SPISQSQFIPLGEILCLAISAMNSARKPVTQEALMEHLTTPFPGVPTPSQEILRHTLNTLVRERKIYPTPDGYFIVTP [C41P]	-0.534 ± 0.1
SPISQSQFIPLGEILCLAISAMNSARKPVTQEALMEHLTTIFPGVPTPSQEILRHTLNTLVRERKIYPTPDGYFIVTP [C41I]	-0.129 ± 0.15
SPISQSQFIPLGEILCLAISAMNSARKPVTQEALMEHLTTKFPGVPTPSQEILRHTLNTLVRERKIYPTPDGYFIVTP [C41K]	-0.11 ± 0.082
SPISQSQFIPLGEILCLAISAMNSARKPVTQEALMEHLTTQFPGVPTPSQEILRHTLNTLVRERKIYPTPDGYFIVTP [C41Q]	-0.292 ± 0.16
SPISQSQFIPLGEILCLAISAMNSARKPVTQEALMEHLTTEFPGVPTPSQEILRHTLNTLVRERKIYPTPDGYFIVTP [C41E]	0.004 ± 0.067
SPISQSQFIPLGEILCLAISAMNSARKPVTQEALMEHLTTHFPGVPTPSQEILRHTLNTLVRERKIYPTPDGYFIVTP [C41H]	-0.096 ± 0.15
SPISQSQFIPLGEILCLAISAMNSARKPVTQEALMEHLTTTFPGVPTPSQEILRHTLNTLVRERKIYPTPDGYFIVTP [C41T]	-0.105 ± 0.072
SPISQSQFIPLGEILCLAISAMNSARKPVTQEALMEHLTTNFPGVPTPSQEILRHTLNTLVRERKIYPTPDGYFIVTP [C41N]	-0.024 ± 0.14
SPISQSQFIPLGEILCLAISAMNSARKPVTQEALMEHLTTSFPGVPTPSQEILRHTLNTLVRERKIYPTPDGYFIVTP [C41S]	0.021 ± 0.065
SPISQSQFIPLGEILCLAISAMNSARKPVTQEALMEHLTTFFPGVPTPSQEILRHTLNTLVRERKIYPTPDGYFIVTP [C41F]	0.01 ± 0.082
SPISQSQFIPLGEILCLAISAMNSARKPVTQEALMEHLTTVFPGVPTPSQEILRHTLNTLVRERKIYPTPDGYFIVTP [C41V]	-0.056 ± 0.035
SPISQSQFIPLGEILCLAISAMNSARKPVTQEALMEHLTTMFPGVPTPSQEILRHTLNTLVRERKIYPTPDGYFIVTP [C41M]	0.032 ± 0.091
SPISQSQFIPLGEILCLAISAMNSARKPVTQEALMEHLTTAFPGVPTPSQEILRHTLNTLVRERKIYPTPDGYFIVTP [C41A]	0.019 ± 0.051
SPISQSQFIPLGEILCLAISAMNSARKPVTQEALMEHLTTDFPGVPTPSQEILRHTLNTLVRERKIYPTPDGYFIVTP [C41D]	-0.055 ± 0.064
SPISQSQFIPLGEILCLAISAMNSARKPVTQEALMEHLTYCFPGVPTPSQEILRHTLNTLVRERKIYPTPDGYFIVTP [T40Y]	-0.069 ± 0.12
SPISQSQFIPLGEILCLAISAMNSARKPVTQEALMEHLTTCFPGCPTPSQEILRHTLNTLVRERKIYPTPDGYFIVTP [V45C]	-0.003 ± 0.05
SPISQSQFIPLGEILCLAISAMNSARKPVTQEALMEHLTTCFPGAPTPSQEILRHTLNTLVRERKIYPTPDGYFIVTP [V45A]	-0.088 ± 0.043
SPISQSQFIPLGEILCLAISAMNSARKPVTQEALMEHLTTCFPGEPTPSQEILRHTLNTLVRERKIYPTPDGYFIVTP [V45E]	-0.155 ± 0.067
SPISQSQFIPLGEILCLAISAMNSARKPVTQEALMEHLTTCFPGDPTPSQEILRHTLNTLVRERKIYPTPDGYFIVTP [V45D]	-0.207 ± 0.091
SPISQSQFIPLGEILCLAISAMNSARKPVTQEALMEHLTTCFPGFPTPSQEILRHTLNTLVRERKIYPTPDGYFIVTP [V45F]	0.067 ± 0.069

Variant	abundance fitness
SPISQSQFIPLGEILCLAISAMNSARKPVTQEALMEHLTTCIPGVPTPSQEILRHTLNTLVRERKIYPTPDGYFIVTP [F42I]	0.009 ± 0.15
SPISQSQFIPLGEILCLAISAMNSARKPVTQEALMEHLTTCPPGVPTPSQEILRHTLNTLVRERKIYPTPDGYFIVTP [F42P]	-0.057 ± 0.1
SPISQSQFIPLGEILCLAISAMNSARKPVTQEALMEHLTTCAPGVPTPSQEILRHTLNTLVRERKIYPTPDGYFIVTP [F42A]	-0.05 ± 0.12
SPISQSQFIPLGEILCLAISAMNSARKPVTQEALMEHLTTCMPGVPTPSQEILRHTLNTLVRERKIYPTPDGYFIVTP [F42M]	0.033 ± 0.2
SPISQSQFIPLGEILCLAISAMNSARKPVTQEALMEHLTTCNPGVPTPSQEILRHTLNTLVRERKIYPTPDGYFIVTP [F42N]	0.106 ± 0.21
SPISQSQFIPLGEILCLAISAMNSARKPVTQEALMEHLTTCTPGVPTPSQEILRHTLNTLVRERKIYPTPDGYFIVTP [F42T]	0.176 ± 0.17
SPISQSQFIPLGEILCLAISAMNSARKPVTQEALMEHLTTCVPGVPTPSQEILRHTLNTLVRERKIYPTPDGYFIVTP [F42V]	-0.045 ± 0.11
SPISQSQFIPLGEILCLAISAMNSARKPVTQEALMEHLTTCEPGVPTPSQEILRHTLNTLVRERKIYPTPDGYFIVTP [F42E]	0.108 ± 0.13
SPISQSQFIPLGEILCLAISAMNSARKPVTQEALMEHLTTCLPGVPTPSQEILRHTLNTLVRERKIYPTPDGYFIVTP [F42L]	-0.08 ± 0.1
SPISQSQFIPLGEILCLAISAMNSARKPVTQEALMEHLTTCRPGVPTPSQEILRHTLNTLVRERKIYPTPDGYFIVTP [F42R]	0.001 ± 0.1
SPISQSQFIPLGEILCLAISAMNSARKPVTQEALMEHLTTCWPGVPTPSQEILRHTLNTLVRERKIYPTPDGYFIVTP [F42W]	-0.086 ± 0.047
SPISQSQFIPLGEILCLAISAMNSARKPVTQEALMEHLTTCDPGVPTPSQEILRHTLNTLVRERKIYPTPDGYFIVTP [F42D]	0.273 ± 0.28
SPISQSQFIPLGEILCLAISAMNSARKPVTQEALMEHLTTCQPGVPTPSQEILRHTLNTLVRERKIYPTPDGYFIVTP [F42Q]	-0.661 ± 0.47
SPISQSQFIPLGEILCLAISAMNSARKPVTQEALMEHLTTCFGGVPTPSQEILRHTLNTLVRERKIYPTPDGYFIVTP [P43G]	-0.101 ± 0.036
SPISQSQFIPLGEILCLAISAMNSARKPVTQEALMEHLTTCFQGVPTPSQEILRHTLNTLVRERKIYPTPDGYFIVTP [P43Q]	-0.057 ± 0.064
SPISQSQFIPLGEILCLAISAMNSARKPVTQEALMEHLTTCFMGVPTPSQEILRHTLNTLVRERKIYPTPDGYFIVTP [P43M]	-0.21 ± 0.071
SPISQSQFIPLGEILCLAISAMNSARKPVTQEALMEHLTTCFFGVPTPSQEILRHTLNTLVRERKIYPTPDGYFIVTP [P43F]	-0.184 ± 0.093
SPISQSQFIPLGEILCLAISAMNSARKPVTQEALMEHLTTCFDGVPTPSQEILRHTLNTLVRERKIYPTPDGYFIVTP [P43D]	-0.119 ± 0.17
SPISQSQFIPLGEILCLAISAMNSARKPVTQEALMEHLTTCFSGVPTPSQEILRHTLNTLVRERKIYPTPDGYFIVTP [P43S]	-0.023 ± 0.048
SPISQSQFIPLGEILCLAISAMNSARKPVTQEALMEHLTTCFKGVPTPSQEILRHTLNTLVRERKIYPTPDGYFIVTP [P43K]	0.048 ± 0.057
SPISQSQFIPLGEILCLAISAMNSARKPVTQEALMEHLTTCFCGVPTPSQEILRHTLNTLVRERKIYPTPDGYFIVTP [P43C]	-0.135 ± 0.026
SPISQSQFIPLGEILCLAISAMNSARKPVTQEALMEHLTTCFAGVPTPSQEILRHTLNTLVRERKIYPTPDGYFIVTP [P43A]	-0.137 ± 0.056
SPISQSQFIPLGEILCLAISAMNSARKPVTQEALMEHLTTCFIGVPTPSQEILRHTLNTLVRERKIYPTPDGYFIVTP [P43I]	-0.092 ± 0.11
SPISQSQFIPLGEILCLAISAMNSARKPVTQEALMEHLTTCFYGVPTPSQEILRHTLNTLVRERKIYPTPDGYFIVTP [P43Y]	-0.109 ± 0.093

Variant	abundance fitness
SPISQSQFIPLGEILCLAISAMNSARKPVTQEALMEHLTTCFWGVPTPSQEILRHTLNTLVRERKIYPTPDGYFIVTP [P43W]	-0.23 ± 0.055
SPISQSQFIPLGEILCLAISAMNSARKPVTQEALMEHLTTCFEGVPTPSQEILRHTLNTLVRERKIYPTPDGYFIVTP [P43E]	-0.006 ± 0.065
SPISQSQFIPLGEILCLAISAMNSARKPVTQEALMEHLTTCFVGVPTPSQEILRHTLNTLVRERKIYPTPDGYFIVTP [P43V]	-0.076 ± 0.047
SPISQSQFIPLGEILCLAISAMNSARKPVTQEALMEHLTTCFTGVPTPSQEILRHTLNTLVRERKIYPTPDGYFIVTP [P43T]	-0.028 ± 0.067
SPISQSQFIPLGEILCLAISAMNSARKPVTQEALMEHLTTCFHGVPTPSQEILRHTLNTLVRERKIYPTPDGYFIVTP [P43H]	-0.001 ± 0.11
SPISQSQFIPLGEILCLAISAMNSARKPVTQEALMEHLTTCFLGVPTPSQEILRHTLNTLVRERKIYPTPDGYFIVTP [P43L]	-0.09 ± 0.055
SPISQSQFIPLGEILCLAISAMNSARKPVTQEALMEHLTTCFPFVPTPSQEILRHTLNTLVRERKIYPTPDGYFIVTP [G44F]	-0.156 ± 0.069
SPISQSQFIPLGEILCLAISAMNSARKPVTQEALMEHLTTCFPDVPTPSQEILRHTLNTLVRERKIYPTPDGYFIVTP [G44D]	0.073 ± 0.12
SPISQSQFIPLGEILCLAISAMNSARKPVTQEALMEHLTTCFPYVPTPSQEILRHTLNTLVRERKIYPTPDGYFIVTP [G44Y]	-0.036 ± 0.12
SPISQSQFIPLGEILCLAISAMNSARKPVTQEALMEHLTTCFPWVPTPSQEILRHTLNTLVRERKIYPTPDGYFIVTP [G44W]	-0.103 ± 0.056
SPISQSQFIPLGEILCLAISAMNSARKPVTQEALMEHLTTCFPPVPTPSQEILRHTLNTLVRERKIYPTPDGYFIVTP [G44P]	-0.063 ± 0.053
SPISQSQFIPLGEILCLAISAMNSARKPVTQEALMEHLTTCFPTVPTPSQEILRHTLNTLVRERKIYPTPDGYFIVTP [G44T]	-0.037 ± 0.054
SPISQSQFIPLGEILCLAISAMNSARKPVTQEALMEHLTTCFPMVPTPSQEILRHTLNTLVRERKIYPTPDGYFIVTP [G44M]	-0.024 ± 0.055
SPISQSQFIPLGEILCLAISAMNSARKPVTQEALMEHLTTCFPQVPTPSQEILRHTLNTLVRERKIYPTPDGYFIVTP [G44Q]	-0.055 ± 0.068
SPISQSQFIPLGEILCLAISAMNSARKPVTQEALMEHLTTCFPLVPTPSQEILRHTLNTLVRERKIYPTPDGYFIVTP [G44L]	-0.091 ± 0.034
SPISQSQFIPLGEILCLAISAMNSARKPVTQEALMEHLTTCFPAVPTPSQEILRHTLNTLVRERKIYPTPDGYFIVTP [G44A]	-0.054 ± 0.044
SPISQSQFIPLGEILCLAISAMNSARKPVTQEALMEHLTTCFPNVPTPSQEILRHTLNTLVRERKIYPTPDGYFIVTP [G44N]	0.024 ± 0.17
SPISQSQFIPLGEILCLAISAMNSARKPVTQEALMEHLTTCFPSVPTPSQEILRHTLNTLVRERKIYPTPDGYFIVTP [G44S]	0.016 ± 0.042
SPISQSQFIPLGEILCLAISAMNSARKPVTQEALMEHLTTCFPCVPTPSQEILRHTLNTLVRERKIYPTPDGYFIVTP [G44C]	-0.046 ± 0.064
SPISQSQFIPLGEILCLAISAMNSARKPVTQEALMEHLTTCFPRVPTPSQEILRHTLNTLVRERKIYPTPDGYFIVTP [G44R]	0.117 ± 0.032
SPISQSQFIPLGEILCLAISAMNSARKPVTQEALMEHLTTCFPHVPTPSQEILRHTLNTLVRERKIYPTPDGYFIVTP [G44H]	-0.023 ± 0.077
SPISQSQFIPLGEILCLAISAMNSARKPVTQEALMEHLTTCFPVVPTPSQEILRHTLNTLVRERKIYPTPDGYFIVTP [G44V]	-0.111 ± 0.035
